Assay results reported in US20250059285A1 (ARGENX, published 2025).

Tests used:
[1] = molecular target: T1, cynomolgus Gal10-His (WGS isoform) (cynomolgus); experiment: SPR Biacore 3000, hFab on captured cynomolgus Gal10-His (WGS); column head prints (M), the text gives nM
T1 construct: also called cynomolgus antigen
Outline: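 Fab binding measured by SPR on Biacore 3000, with His-tagged human or cynomolgus (WGS isoform) Gal10 captured on an anti-His antibody-coated CM5 chip. Clones applied either at two concentrations (cynomolgus only) or as a serial dilution.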

human Gal10-His [2] = molecular target: T2, human Gal10-His (human, UniProt Q05315 2-142, limits assumed); experiment: summary of periplasmic extract screening (BLI or SPR)
T2 construct: also called hGal10-His; human Gal10-His tagged; not shown: His tag
T2 sequence: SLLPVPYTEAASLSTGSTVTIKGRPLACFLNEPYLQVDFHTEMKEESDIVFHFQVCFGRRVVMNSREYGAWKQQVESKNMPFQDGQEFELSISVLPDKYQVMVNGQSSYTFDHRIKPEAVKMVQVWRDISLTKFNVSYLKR

human Gal10-His [3] = molecular target: T2, human Gal10-His; experiment: SPR against T0 reference; sample 4 weeks at 37 C
Experimental: (§1) The functional active concentration of the candidates was then assessed by SPR on a Biacore 3000 instrument (FIG. 4). All samples were evaluated with methods meeting the standard qualification criteria. Aliquots were tested at predefined test concentrations against titration curves from reference samples (T0, −80° C. storage) and in the presence of quality control (QC) samples covering a range of 70-130% relative activity (% RA) towards the reference material.
(§2) comparison/reference ⁽¹⁾ samples correspond to aliquots kept at +37° C. for 4 weeks ⁽²⁾ samples correspond to aliquots kept at +5° C. for 4 weeks prior to nebulization. In brief, samples were nebulized with an Aerogen Solo active vibrating mesh nebulizer that converted a drug solution into an inhalable aerosol. Three different devices for each time-point were used per clone and results are reported by the device (nebulizer) serial number. In case of device fouling, indicated by longer nebulization times […]

[4] = molecular target: T1, cynomolgus Gal10-His (WGS isoform); experiment: SPR, summary table, cynomolgus_WGS Gal10
human Gal10-His [5] = molecular target: T2, human Gal10-His; experiment: SPR slope against calibrators on captured Gal10-His; sample 2 weeks at 37 C
Experimental: The binding properties of the seven selected clones following two weeks of temperature stress was analysed using an optimized capture method on a Biacore 3000 instrument. The binding properties of the stressed samples were determined, compared to the calibration point, and expressed as a percentage of Relative Activity (% RA).
Briefly, a capture method was set-up on a Biacore 3000 instrument. For this purpose, a CM5 chip was coated with a monoclonal anti-His antibody (4000 RU), then a fixed concentration of the human Gal10-His (25 μg/mL) was captured on the anti-His chip before receiving duplicate injections of the calibrators, QC samples and temperature stressed samples of each clone. The slope of each injected sample was then calculated using the BIA evaluation software. Concentrations of the QC samples and temperature stressed samples were back-calculated by interpolating the obtained slopes of these samples to the calibrator curve. Obtained values were within +/−20% of the nominal concentration of the tested samples and are expressed as average relative accuracy (avg % RA) (Table 13).

human Gal10-His [6] = molecular target: T2, human Gal10-His; experiment: SPR Biacore 3000, Fab periplasmic extract on Gal10-His-coated CM5
Experimental: The binding properties of the Fabs (periplasmic extract) to human Gal10-His were analyzed by SPR with a Biacore 3000 instrument. For this purpose, the diluted periplasmic extract was applied on a CM5 chip coated with human Gal10-His. As a positive control, a 20 nM injection of the purified g7B07 clone in the human Fab backbone was included at the beginning and end of the run.
The binding capacity of the Fab periplasmic extract was analyzed by SPR technology using a Biacore 3000. Briefly, diluted periplasmic extracts were injected on CM5 chip coated with 2500 RU of Gal10-His. The amplitude of the binding (Rmax), the dissociation (off-rate) of each clone, as well as the off-rate fold change compared to the controls (g7B07 and g7B07_N53A) are indicated. Clones g20H09 and g23H09 had similar or better off rate compared to the control g7B07 (Table 10). The randomized part of the CDR2 sequence is underlined (Table 10).

human Gal10-His [7] = molecular target: T2, human Gal10-His; experiment: SPR against T0 reference; sample 4 weeks at 5 C, then nebulized
Experimental: as §1, §2

B1: g23H09 (Fab) (Fab, V domains shown)
VH: EVQLLESGGGLVQPGGSLRLSCAASGFTFRSYDMSWVRQAPGKGLEWVSAIAQFQHWTYYADSVKGRFTISRDNSKNTLYLQMNSLRAEDTAVYYCATTHGIGTLGFGSWGQGTLVTVSS
VL: SYELTQPLSVSVALGQTARITCDGNNIGSKSAQWYQQKPGQAPVLVIYADEYRPEGIPERFSGSNSGNTATLTISRAQAGDEADYYCQVWDGSAAVFGGGTQLTVL
notes: same VH/VL
Kd [1]: 9.9 nM | kd, fold compared to g7B07 (BLI or SPR) (human Gal10-His [2]): 2.5 fold | % relative activity by SPR (human Gal10-His [3]): 93% | Kd [4]: 9.9 nM | koff [4]: 0.0095 s⁻¹ | % Relative Activity (RA) on Biacore (human Gal10-His [5]): 78% | Fold off-rate compared to g7B07 (human Gal10-His [6]): 0.4 fold | koff (human Gal10-His [6]): 0.0027 s⁻¹ | % relative activity by SPR (human Gal10-His [7]): 119%
